Patent US6458927B1, “Polypeptide with appetite regulating activity” (Novo Nordisk A/S, priority 1997, dated 2002)

Test system: Mice
Experiment: Test method for measuring appetite suppression in mice (milk consumption after ICV injection)
Assay type: in vivo
Conditions: for % Feeding Suppression: food deprived, milk consumption over 10 minutes, 30 min after injection, percent reduction relative to control mean
Description: Mice were deprived of their normal feed for two days and given free access to a solution of nutritionally complete infant formula milk (Complan®) for the first day, after which food deprivation was complete for the last day before testing. After one day of food deprivation, mice were injected intra-cerebroventricularly (ICV) in the lateral ventricle with 10 microliters of a solution containing the test substance. Thirty minutes after injection, mice were individually placed in a 15×15×15 cm test box with a stainless steel grid floor and a glass drinking tube which projected into the box. The drinking tube was connected to a reservoir containing the formula milk solution, and the interior of the drinking tube contained an electrode enabling the detection of drinking contacts with the solution by measuring the flow of a weak (unnoticeable) electric current through mice by means of an electronic apparatus connected to the drinking tube electrode and the stainless steel grid floor. Consumption of the milk solution was measured over a 10 minutes period by electronically recording the total amount of contact with the milk solution during the test session. The degree of appetite suppression produced by a given test substance was determined by statistical comparison of the duration of milk consumption by control (vehicle treated) mice with that of mice treated with a test substance. The degree of appetite suppression in a treated group of mice was expressed as percent reduction of consumption relative to the mean of the control group's response.

B1: Ala-Leu-Asp-Ile-Tyr-Ser-Ala-Val-Asp-Asp-Ala-Ser-His-Glu-Lys-Glu-Leu-Ile- Glu-Ala-Leu-Gln-Glu-Val-Leu-Lys-Lys-Leu-Lys-Ser-Lys-Arg-Ile-Pro-Ile-Tyr- … (protein)
chain: ALDIYSAVDDASHEKELIEALQEVLKKLKSKRIPIYEKKYGQVPMCDAGEQCAVRKGARIGKLCDCPRGTSCNSFLLKCL
notes: recombinant rat CART fragment 10-89 from FXa digest of thioredoxin-CART fusion (E. coli)
**Q.** For B1, which “% Feeding Suppression” value (ICV dose 1 microgram) is on record?
**A.** Its value is 41%.

**Q.** What about the “% Feeding Suppression” value (ICV dose 2 micrograms) of the same molecule?
**A.** The value was 70%.

**Q.** What about the “% Feeding Suppression” value (ICV dose 5 micrograms) of the same molecule?
**A.** The value was 71%.

**Q.** And the “% Feeding Suppression” value (ICV dose 10 micrograms)?
**A.** The value was 59%.

**Q.** And the “% Feeding Suppression” value (ICV dose 20 micrograms)?
**A.** Its value is 78%.

**Q.** What about the “suppression of milk consumption (statistical significance, in words)” value (intra-cerebroventricular injection in phosphate buffered saline, over the dose range tested for the substance) of the same molecule?
**A.** The value was “statistically significant suppression of milk consumption”.
